Experimental data taken from the supplement of paper PMC10567573.

B1: EPB41L3 (parent)
chain: SMQCKVILLDGSEYTCDVEKRSRG

Variants of: B1
Test: protein stability index of a GFP-peptide fusion (GPS, HEK-293T) (PSI 1-6); higher = more stable
Details: c terminus: a fixed tail appended
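Also: lentivirally expressed fusions sorted by FACS into six bins by GFP to DsRed ratio, PSI derived from sequencing read proportions per bin multiplied by bin number.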

Row | Variant | protein stability index
1 | SMQCKVILEDGSEYTCDVEKRSRG | 4.28
2 | SMQCKVILGDGSEYTCDVEKRSRG | 3.72
3 | SMQCKVILYDGSEYTCDVEKRSRG | 2.41
4 | SMQCKVILHDGSEYTCDVEKRSRG | 3.44
5 | SMQCKVILVDGSEYTCDVEKRSRG | 3.31
6 | SMQCKVILIDGSEYTCDVEKRSRG | 2.97
7 | SMQCKVILFDGSEYTCDVEKRSRG | 2.83
8 | SMQCKVILLDGSEYTCDVEKRCRG | 2.09
9 | SMQCKVILLDGSEYTCDVEKRARG | 2.29
10 | SMQCKVILLDGSEYTCDVEKRGRG | 3.02
11 | SMQCKVILLDGSEYTCDVEKRMRG | 2.4
12 | SMQCKVILLDGSEYTCDVEKRPRG | 2.56
13 | SMQCKVILLDGSEYTCDVEKRRRG | 3.11
14 | SMQCKVILLDGSEYTCDVEKRERG | 3.75
15 | SIQCKVILLDGSEYTCDVEKRSRG | 2.12
16 | SNQCKVILLDGSEYTCDVEKRSRG | 4.06
17 | SSQCKVILLDGSEYTCDVEKRSRG | 3.2
18 | SEQCKVILLDGSEYTCDVEKRSRG | 4.4
19 | SDQCKVILLDGSEYTCDVEKRSRG | 3.38
20 | SQQCKVILLDGSEYTCDVEKRSRG | 3.64
21 | SGQCKVILLDGSEYTCDVEKRSRG | 3.36
22 | SMQCKVILLDGSEYTCDVEKQSRG | 2.55
23 | SMQCKVILLDGSEYTCDVEKMSRG | 1.88
24 | SMQCKVILLDGSEYTCDVEKWSRG | 1.57

Row | Variant | protein stability index
25 | SMQCKVILLDGSEYTCDVEKKSRG | 3.56
26 | SMQCKVILLDGSEYTCDVEKHSRG | 2.72
27 | SMQCKVILLDGSEYTCDVEKISRG | 1.88
28 | SMQCKVILLDGSEYTCDVEKGSRG | 2.73
29 | SMQCKVILLDGSEYTCDVEKESRG | 3.09
30 | SMQCKVILLDGSEYTCDVEKPSRG | 3.06
31 | SMQCKVILLDGSEYTCDVEKLSRG | 2.31
32 | SMQCKVILLDGGEYTCDVEKRSRG | 2.9
33 | SMQCKVILLDGDEYTCDVEKRSRG | 3.08
34 | SMQCKVILLDGMEYTCDVEKRSRG | 1.98
35 | SMQCKVILLDGEEYTCDVEKRSRG | 4.38
36 | SMQCKVILLDGAEYTCDVEKRSRG | 3.39
37 | SMQCKVILLDGPEYTCDVEKRSRG | 2.4
38 | SMQCKVILLDGIEYTCDVEKRSRG | 2.39
39 | SMQCKVILLDGTEYTCDVEKRSRG | 2.16
40 | SMQCKVILLDGNEYTCDVEKRSRG | 2.91
41 | SMQCKVIILDGSEYTCDVEKRSRG | 2.17
42 | SMQCKVIRLDGSEYTCDVEKRSRG | 2.83
43 | SMQCKVIPLDGSEYTCDVEKRSRG | 4.33
44 | SMQCKVIMLDGSEYTCDVEKRSRG | 3.13
45 | SMQCKVILLSGSEYTCDVEKRSRG | 2.04
46 | SMQCKVILLQGSEYTCDVEKRSRG | 2.41
47 | SMQCKVILLPGSEYTCDVEKRSRG | 2.66
48 | SMQCKVILLAGSEYTCDVEKRSRG | 2.07

Row | Variant | protein stability index
49 | SMQCKVILLLGSEYTCDVEKRSRG | 1.67
50 | SMQCKVILLEGSEYTCDVEKRSRG | 2.24
51 | SMQCKVILLWGSEYTCDVEKRSRG | 1.09
52 | SMQCKVILLMGSEYTCDVEKRSRG | 1.5
53 | SMQCKVILLDGSEYTCDVMKRSRG | 2.14
54 | SMQCKVILLDGSEYTCDVFKRSRG | 1.19
55 | SMQCKVILLDGSEYTCDVWKRSRG | 2.11
56 | SMQCKVILLDGSEYTCDVSKRSRG | 2.6
57 | SMQCKVILLDGSEYTCDVDKRSRG | 2.19
58 | SMQCKVILLDGSEYTCDVRKRSRG | 2.15
59 | SMQCKVILLDGSEYTCDVCKRSRG | 2.13
60 | SMQCKVILLDGSEYTCDVQKRSRG | 2.5
61 | SMQCKVILLDGSEYTCDVLKRSRG | 1.99
62 | SMQCKVILLDGSEYTCDVVKRSRG | 2.35
63 | SMQCKVILLDGSEYTIDVEKRSRG | 2.77
64 | SMQCKVILLDGSEYTEDVEKRSRG | 3.52
65 | SMQCKVILLDGSEYTMDVEKRSRG | 2.41
66 | SMQCKVILLDGSEYTDDVEKRSRG | 3.44
67 | SMQCKVILLDGSEYTTDVEKRSRG | 2.55
68 | SMQCKVILLDGSEYTKDVEKRSRG | 3.07
69 | SMQCKVILLDGSEYTSDVEKRSRG | 2.65
70 | SMQCKVILLDGSEYTADVEKRSRG | 2.95
71 | SMQCKVILLDGSEYTPDVEKRSRG | 2.66
72 | SMQCKVRLLDGSEYTCDVEKRSRG | 3.45

Row | Variant | protein stability index
73 | SMQCKVDLLDGSEYTCDVEKRSRG | 4.08
74 | SMQCKVLLLDGSEYTCDVEKRSRG | 2.63
75 | SMQCKVSLLDGSEYTCDVEKRSRG | 3.91
76 | SMQCKVFLLDGSEYTCDVEKRSRG | 2.39
77 | SMQCKVWLLDGSEYTCDVEKRSRG | 3.62
78 | SMQCKVTLLDGSEYTCDVEKRSRG | 3.64
79 | SMQCKVQLLDGSEYTCDVEKRSRG | 3.13
80 | SMQCKVALLDGSEYTCDVEKRSRG | 3.03
81 | SMQCKVILLDGSEYVCDVEKRSRG | 2.06
82 | SMQCKVILLDGSEYPCDVEKRSRG | 3.37
83 | SMQCKVILLDGSEYFCDVEKRSRG | 1.63
84 | SMQCKVILLDGSEYLCDVEKRSRG | 1.67
85 | SMQCKVILLDGSEYMCDVEKRSRG | 2.49
86 | SMQCKVILLDGSEYQCDVEKRSRG | 3.19
87 | SMQCKVILLDGSEYDCDVEKRSRG | 3.38
88 | SMQCKVILLDGSEYYCDVEKRSRG | 2.58
89 | SMQCKVILLDGSEWTCDVEKRSRG | 1.9
90 | SMQCKVILLDGSERTCDVEKRSRG | 3.66
91 | SMQCKVILLDGSENTCDVEKRSRG | 3.7
92 | SMQCKVILLDGSETTCDVEKRSRG | 2.81
93 | SMQCKVILLDGSESTCDVEKRSRG | 4.43
94 | SMQCKVILLDGSEFTCDVEKRSRG | 2.21
95 | SMQCKVILLDGSEATCDVEKRSRG | 3.7
96 | SMQCKVILLDGSEKTCDVEKRSRG | 3.97

Row | Variant | protein stability index
97 | SMQCKVILLDGSECTCDVEKRSRG | 2.67
98 | SMQCKVILLDGSEETCDVEKRSRG | 3.83
99 | SMQHKVILLDGSEYTCDVEKRSRG | 3.46
100 | SMQEKVILLDGSEYTCDVEKRSRG | 4.48
101 | SMQYKVILLDGSEYTCDVEKRSRG | 2.29
102 | SMQNKVILLDGSEYTCDVEKRSRG | 3.07
103 | SMQTKVILLDGSEYTCDVEKRSRG | 3.61
104 | SMQIKVILLDGSEYTCDVEKRSRG | 2.41
105 | SMQRKVILLDGSEYTCDVEKRSRG | 4.51
106 | SMQPKVILLDGSEYTCDVEKRSRG | 3.94
107 | SMQKKVILLDGSEYTCDVEKRSRG | 4.37
108 | SMQCKVILLDGSEYTCNVEKRSRG | 2.36
109 | SMQCKVILLDGSEYTCYVEKRSRG | 1.61
110 | SMQCKVILLDGSEYTCMVEKRSRG | 1.1
111 | SMQCKVILLDGSEYTCGVEKRSRG | 2.34
112 | SMQCKVILLDGSEYTCCVEKRSRG | 2.45
113 | SMQCKVILLDGSEYTCSVEKRSRG | 2.21
114 | SMQCKVILLDGSEYTCHVEKRSRG | 2.51
115 | SMQCKVILLDGSEYTCDLEKRSRG | 1.79
116 | SMQCKVILLDGSEYTCDREKRSRG | 2.92
117 | SMQCKVILLDGSEYTCDYEKRSRG | 2.29
118 | SMQCKVILLDGSEYTCDTEKRSRG | 3.38
119 | SMQCKVILLDGSEYTCDKEKRSRG | 4.16
120 | SMQCKVILLDWSEYTCDVEKRSRG | 1.68

Row | Variant | protein stability index
121 | SMQCKVILLDHSEYTCDVEKRSRG | 3.67
122 | SMQCKVILLDNSEYTCDVEKRSRG | 3.26
123 | SMQCKVILLDDSEYTCDVEKRSRG | 2.98
124 | SMQCKVILLDVSEYTCDVEKRSRG | 2.64
125 | SMQCKVILLDKSEYTCDVEKRSRG | 2.94
126 | SMQCKVILLDLSEYTCDVEKRSRG | 2.75
127 | SMQCKVILLDCSEYTCDVEKRSRG | 2.41
128 | SMQCKVILLDGSEYTCDVEKRSEG | 2.63
129 | SMQCKVILLDGSEYTCDVEKRSYG | 2.22
130 | SMQCKVILLDGSEYTCDVEKRSDG | 3.51
131 | SMQCKVILLDGSEYTCDVEKRSIG | 2.45
132 | SMQCKVILLDGSEYTCDVEKRSAG | 3.05
133 | SMQCKVILLDGSEYTCDVEKRSTG | 3.61
134 | SMQCKVILLDGSDYTCDVEKRSRG | 2.37
135 | SMQCKVILLDGSPYTCDVEKRSRG | 3.48
136 | SMQCKVILLDGSMYTCDVEKRSRG | 2.09
137 | SMQCKVILLDGSYYTCDVEKRSRG | 1.9
138 | SMQCKVILLDGSKYTCDVEKRSRG | 2.41
139 | SMQCKVILLDGSVYTCDVEKRSRG | 1.86
140 | SMQCDVILLDGSEYTCDVEKRSRG | 3.96
141 | SMQCPVILLDGSEYTCDVEKRSRG | 3.85
142 | SMQCGVILLDGSEYTCDVEKRSRG | 3.57
143 | SMQCRVILLDGSEYTCDVEKRSRG | 2.06
144 | SMQCLVILLDGSEYTCDVEKRSRG | 1.31

Row | Variant | protein stability index
145 | SMQCMVILLDGSEYTCDVEKRSRG | 1.43
146 | SMQCKVILLDGSEYTCDVETRSRG | 3.66
147 | SMQCKVILLDGSEYTCDVEFRSRG | 1.43
148 | SMQCKVILLDGSEYTCDVEQRSRG | 2.6
149 | SMQCKVILLDGSEYTCDVENRSRG | 3.04
150 | SMQCKVILLDGSEYTCDVELRSRG | 1.67
151 | SMQCKVILLDGSEYTCDVEARSRG | 2.06
152 | SMQCKVILLDGSEYTCDVEDRSRG | 3.36
153 | SMQCKVILLDGSEYTCDVEKRSRM | 2.51
154 | SMQCKVILLDGSEYTCDVEKRSRK | 2.99
155 | SMQCKVILLDGSEYTCDVEKRSRL | 2.47
156 | SMQCKVILLDGSEYTCDVEKRSRQ | 2.17
157 | SMQCKVILLDGSEYTCDVEKRSRR | 2.84
158 | SMQCKVILLDGSEYTCDVEKRSRY | 2.25
159 | SMQCKVILLDGSEYTCDVEKRSRN | 3.27
160 | SMQCKVILLDGSEYTCDVEKRSRS | 3.48
161 | SMQCKVILLDGSEYTCDVEKRSRT | 3.25
162 | SMQCKVILLDGSEYTCDVEKRSRD | 2.37
163 | SMQCKRILLDGSEYTCDVEKRSRG | 3.62
164 | SMQCKWILLDGSEYTCDVEKRSRG | 2.59
165 | SMQCKNILLDGSEYTCDVEKRSRG | 4.5
166 | SMQCKPILLDGSEYTCDVEKRSRG | 4.68
167 | SMCCKVILLDGSEYTCDVEKRSRG | 2.16
168 | SMNCKVILLDGSEYTCDVEKRSRG | 2.76

Row | Variant | protein stability index
169 | SMECKVILLDGSEYTCDVEKRSRG | 3.81
170 | SMVCKVILLDGSEYTCDVEKRSRG | 2.63
171 | SMHCKVILLDGSEYTCDVEKRSRG | 2.83
172 | SMSCKVILLDGSEYTCDVEKRSRG | 2.98
173 | SMKCKVILLDGSEYTCDVEKRSRG | 2.68
174 | MMQCKVILLDGSEYTCDVEKRSRG | 3.46
175 | PMQCKVILLDGSEYTCDVEKRSRG | 3.04
176 | RMQCKVILLDGSEYTCDVEKRSRG | 1.95
177 | NMQCKVILLDGSEYTCDVEKRSRG | 2.34
178 | VMQCKVILLDGSEYTCDVEKRSRG | 1.78
179 | FMQCKVILLDGSEYTCDVEKRSRG | 2
180 | KMQCKVILLDGSEYTCDVEKRSRG | 1.93
181 | IMQCKVILLDGSEYTCDVEKRSRG | 1.93
182 | EMQCKVILLDGSEYTCDVEKRSRG | 3.32
183 | HMQCKVILLDGSEYTCDVEKRSRG | 2.19
184 | AMQCKVILLDGSEYTCDVEKRSRG | 2.86
185 | CMQCKVILLDGSEYTCDVEKRSRG | 1.74
186 | YMQCKVILLDGSEYTCDVEKRSRG | 1.37
187 | QMQCKVILLDGSEYTCDVEKRSRG | 2.64
188 | GMQCKVILLDGSEYTCDVEKRSRG | 2.37
